We go through three molecules from article PMC7997659, “Architecture and structural dynamics of the heteromeric GluK2/K5 kainate receptor” (eLife, 2021).

B1: GluK2em (rat GluK2 cryo-EM expression construct) (receptor, UniProt P42260 32-908, looked up)
chain: TTHVLRFGGIFEYVESGPMGAEELAFRFAVNTINRNRTLLPNTTLTYDTQKINLYDSFEASKKACDQLSLGVAAIFGPSHSSSANAVQSICNALGVPHIQTRWKHQVSDNKDSFYVSLYPDFSSLSRAILDLVQFFKWKTVTVVYDDSTGLIRLQELIKAPSRYNLRLKIRQLPADTKDAKPLLKEMKRGKEFHVIFDCSHEMAAGILKQALAMGMMTEYYHYIFTTLDLFALDVEPYRYSGVNMTGFRILNTENTQVSSIIEKWSMERLQAPPKPDSGLLDGFMTTDAALMYDAVHVVSVAVQQFPQMTVSSLQCNRHKPWRFGTRFMSLIKEAHWEGLTGRITFNKTNGLRTDFDLDVISLKEEGLEKIGTWDPASGLNMTESQKGKPANITDSLSNRSLIVTTILEEPYVLFKKSDKPLYGNDRFEGYCIDLLRELSTILGFTYEIRLVEDGKYGAQDDVNGQWNGMVRELIDHKADLAVAPLAITYVREKVIDFSKPFMTLGISILYRKPNGTNPGVFSFLNPLSPDIWMYVLLAYLGVSVVLFVIARFSPYEWYNPHPSNPDSDVVENNFTLLNSFWFGVGALMQQGSELMPKALSTRIVGGIWWFFTLIIISSYTANLAAFLTVERMESPIDSADDLAKQTKIEYGAVEDGATMTFFKKSKISTYDKMWAFMSSRRQSVLVKSNEEGIQRVLTSDYAFLMESTTIEFVTQRNCNLTQIGGLIDSKGYGVGTPMGSPYRDKITIAILQLQEEGKLHMMKEKWWRGNGCPEEESKEASALGVQNIGGIFIVLAAGLVLSVFVAVGEFLYKSKKNAQLEKRSFCSAMVEELRMSLKCQRRLKHKPQAPVIVKTEEVINMHTFNDRRLPGKETMA
modifications: N-linked glycans at N67, N378, N412, N546
notes: signal peptide in the construct; rat GluK2 (GRIK2_RAT), full-length gene, RNA-edited at position 567 (I to V), with C576V and C595S; Two copies stand in the GluK2/K5em tetramer (B/D positions); No thrombin cleavage step is told in the purification; also called B/D subunits; source: HEK293S GnTI- cells, BacMam, co-expressed with GluK5em, purified (Strep-Tactin, 1D4 resin, Superose 6); HEK293T, …

Series [1] deals with the molecule itself. As to the kind of experiment: cryo-EM structure; GluK2/K5em co-expressed and co-purified in DDM/CHS, 3.7 mg/mL, with 1 mM CNQX (antagonist-bound); full-length 5.3 Å, ATD layer 3.6 Å, LBD-TMD 4.2 Å.
In a further series the target is wild-type GluK2 (rat) (UniProt P42260).
Series [2] addresses B1. The series can be described thus: cryo-EM structure; GluK2/K5em co-expressed and co-purified in DDM/CHS, 3.7 mg/mL, with 1 mM CNQX (antagonist-bound); full-length 5.3 Å, ATD layer 3.6 Å, LBD-TMD 4.2 Å. The conditions noted are these: both partners purified.

In the case of B1, in series [1], the binding result is “binds”.

B2: wild-type GluK5 (receptor)
chain: NPSCQVLSSLRMAAILDDQTVCGRGERLALALAREQINGIIEVPAKARVEVDIFELQRDSQYETTDTMCQILPKGVVSVLGPSSSPASASTVSHICGEKEIPHIKVGPEETPRLQYLRFASVSLYPSNEDVSLAVSRILKSFNYPSASLICAKAECLLRLEELVRGFLISKETLSVRMLDDSRDPTPLLKEIRDDKVSTIIIDANASISHLVLRKASELGMTSAFYKYILTTMDFPILHLDGIVEDSSNILGFSMFNTSHPFYPEFVRSLNMSWRENCEASTYPGPALSAALMFDAVHVVVSAVRELNRSQEIGVKPLACTSANIWPHGTSLMNYLRMVEYDGLTGRVEFNSKGQRTNYTLRILEKSRQGHREIGVWYSNRTLAMNATTLDINLSQTLANKTLVVTTILENPYVMRRPNFQALSGNERFEGFCVDMLRELAELLRFRYRLRLVEDGLYGAPEPNGSWTGMVGELINRKADLAVAAFTITAEREKVIDFSKPFMTLGISILYRVHMGRKPGYFSFLDPFSPAVWLFMLLAYLAVSCVLFLAARLSPYEWYNPHPCLRARPHILENQYTLGNSLWFPVGGFMQQGSEIMPRALSTRCVSGVWWAFTLIIISSYTANLAAFLTVQRMEVPVESADDLADQTNIEYGTIHAGSTMTFFQNSRYQTYQRMWNYMQSKQPSVFVKSTEEGIARVLNSRYAFLLESTMNEYHRRLNCNLTQIGGLLDTKGYGIGMPLGSPFRDEITLAILQLQENNRLEILKRKWWEGGRCPKEEDHRAKGLGMENIGGIFVVLICGLIIAVFVAVMEFIWSTRRSAESEEVSVCQEMLQELRHAVSCRKTSRSRRRRRPGGPSRALLSLRAVREMRLSNGKLYSAGAGGDAGAHGGPQRLLDDPGPPGGPRPQAPTPCTHVRVCQECRRIQALRASGAGAPPRGLGTPAEATSPPRPRPGPTGPRELTEHE
For the molecule B2, in the series with wild-type GluK2 (rat), the deactivation current decay after a 1 ms pulse of 1 mM L-Glu, outside-out patches of HEK293T cells co-transfected with wild-type GluK2 and GluK5; weighted τ stood at 23.6 ms; the deactivation current decay after a 1 ms pulse of 1 mM L-Glu, outside-out patches of HEK293T cells co-transfected with wild-type GluK2 and GluK5; τ3 (slow component) worked out at 60 ms.

B3: GluK5em (rat GluK5 cryo-EM expression construct) (receptor)
chain: NPSCQVLSSLRMAAILDDQTVCGRGERLALALAREQINGIIEVPAKARVEVDIFELQRDSQYETTDTMCQILPKGVVSVLGPSSSPASASTVSHICGEKEIPHIKVGPEETPRLQYLRFASVSLYPSNEDVSLAVSRILKSFNYPSASLICAKAECLLRLEELVRGFLISKETLSVRMLDDSRDPTPLLKEIRDDKVSTIIIDANASISHLVLRKASELGMTSAFYKYILTTMDFPILHLDGIVEDSSNILGFSMFNTSHPFYPEFVRSLNMSWRENCEASTYPGPALSAALMFDAVHVVVSAVRELNRSQEIGVKPLACTSANIWPHGTSLMNYLRMVEYDGLTGRVEFNSKGQRTNYTLRILEKSRQGHREIGVWYSNRTLAMNATTLDINLSQTLANKTLVVTTILENPYVMRRPNFQALSGNERFEGFCVDMLRELAELLRFRYRLRLVEDGLYGAPEPNGSWTGMVGELINRKADLAVAAFTITAEREKVIDFSKPFMTLGISILYRVHMGRKPGYFSFLDPFSPAVWLFMLLAYLAVSVVLFLAARLSPYEWYNPHPSLRARPHILENQYTLGNSLWFPVGGFMQQGSEIMPRALSTRIVSGVWWAFTLIIISSYTANLAAFLTVQRMEVPVESADDLADQTNIEYGTIHAGSTMTFFQNSRYQTYQRMWNYMQSKQPSVFVKSTEEGIARVLNSRYAFLLESTMNEYHRRLNCNLTQIGGLLDTKGYGIGMPLGSPFRDEITLAILQLQENNRLEILKRKWWEGGRCPKEEDHRAKGLGMENIGGIFVVLIAGLIIAVFVAVMEFIYKSRAEAKRMK
modifications: N-linked glycans at N219, N271, N322, N372, N394
notes: signal peptide in the construct; rat GluK5 (GRIK5_RAT), from the full-length gene, truncated at position 827 after the M4 helix, four cysteines mutated; GluA2 'tail' ('A2 tail') added at the subunit C-terminus in place of the GluK5 C-terminus; GluK5 with point mutations and its C-terminus replaced by the GluA2 tail; Two copies stand in the GluK2/K5em tetramer (A/C positions); No thrombin cleavage …
For B3, the “stoichiometry N” value in series [2] was 1 GluK5 per GluK2 (printed as 2:2).
